Experimental data taken from patent publication US20220098307A1 (WUHAN YZY BIOPHARMA, published 2022).
Residue numbers refer to the chain shown, from its start. Names and notes keep the numbering of the source.

B1: CD38-M1-G2-2 (bispecific antibody, human IgG1, kappa)
chain: QVQLVESGGGVVQPGRSLRLSCAASGFTFSTYAMNWVRQAPGKGLEWVARIRSKYNNYATYYADSVKDRFTISRDDSKNTLYLQMNSLRAEDTAVYYCARHGNFGNSYVSWFAYWGQGTLVTVSSGGGGSGGGGSGGGGSQTVVTQEPSLTVSPGGTVTLTCRSSTGAVTTSNYANWVQQKPGQAPRGLIGGTNKRAPGVPARFSGSLLGGKAALTLSGVQPEDEAEYYCALWYSNLWVFGGGTKVEIKGRGRGSDKTHTCPPCPAPPVAGPSVFLFPPKPKDTLMISRTPEVTCVVVDVSHEDPEVQFNWYVDGVEVHNAKTKPREEQFNSTFRVVSVLTVVHQDWLNGKEYKCKVSNKGLPAPIEKTISKTKGQPREPQVCTLPPSRDELTKNQVSLSCAVKGFYPSDIAVEWESNGQPENNYKTTPPVLDSDGSFFLVSKLTVDKSRWQQGNVFSCSVMHEALHNHYTQKSLSLSPGK
heavy: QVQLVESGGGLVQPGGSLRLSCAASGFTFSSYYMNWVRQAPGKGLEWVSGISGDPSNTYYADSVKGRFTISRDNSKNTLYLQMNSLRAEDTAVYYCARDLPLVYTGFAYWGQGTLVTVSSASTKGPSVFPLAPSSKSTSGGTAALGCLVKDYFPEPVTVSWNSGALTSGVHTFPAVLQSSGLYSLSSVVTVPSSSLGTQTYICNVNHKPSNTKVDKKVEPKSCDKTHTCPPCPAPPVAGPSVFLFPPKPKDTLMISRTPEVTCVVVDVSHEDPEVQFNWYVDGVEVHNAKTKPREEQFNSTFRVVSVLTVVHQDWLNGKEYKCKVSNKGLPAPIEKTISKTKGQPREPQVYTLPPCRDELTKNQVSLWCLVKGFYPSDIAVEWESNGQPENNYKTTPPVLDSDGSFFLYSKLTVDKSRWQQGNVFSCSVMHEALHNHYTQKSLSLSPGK
light: DIELTQPPSVSVAPGQTARISCSGDNLRHYYVYWYQQKPGQAPVLVIYGDSKRPSGIPERFSGSNSGNTATLTISGTQAEDEADYYCQTYTGGASLVFGGGTKLTVLGQRTVAAPSVFIFPPSDEQLKSGTASVVCLLNNFYPREAKVQWKVDNALQSGNSQESVTEQDSKDSTYSLSSTLTLSKADYEKHKVYACEVTHQGLSSPVTKSFNRGEC
notes: structure 1; CD38 (MOR) x CD3; CH2 G2CH2
B2: CD38-M1-SG2-2 (bispecific antibody, human IgG1, kappa)
chain: B1 chain with C264S
heavy: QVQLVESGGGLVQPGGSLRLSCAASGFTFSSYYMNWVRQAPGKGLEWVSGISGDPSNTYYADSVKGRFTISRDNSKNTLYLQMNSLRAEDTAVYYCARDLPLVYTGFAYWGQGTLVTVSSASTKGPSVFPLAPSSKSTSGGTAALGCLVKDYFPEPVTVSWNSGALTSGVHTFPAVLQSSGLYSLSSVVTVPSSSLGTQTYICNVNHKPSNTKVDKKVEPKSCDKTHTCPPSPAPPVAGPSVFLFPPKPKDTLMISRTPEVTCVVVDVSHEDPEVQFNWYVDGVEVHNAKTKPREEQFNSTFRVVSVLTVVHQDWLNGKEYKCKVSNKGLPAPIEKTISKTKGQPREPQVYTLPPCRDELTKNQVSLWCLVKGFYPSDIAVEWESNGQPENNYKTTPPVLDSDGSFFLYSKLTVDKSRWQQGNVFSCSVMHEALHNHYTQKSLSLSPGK
light: B1 light
notes: structure 1; CD38 (MOR) x CD3; CH2 SG2CH2
B3: CD38-M1-G2D-1 (bispecific antibody, human IgG1, kappa)
chain: B1 chain with D304A
heavy: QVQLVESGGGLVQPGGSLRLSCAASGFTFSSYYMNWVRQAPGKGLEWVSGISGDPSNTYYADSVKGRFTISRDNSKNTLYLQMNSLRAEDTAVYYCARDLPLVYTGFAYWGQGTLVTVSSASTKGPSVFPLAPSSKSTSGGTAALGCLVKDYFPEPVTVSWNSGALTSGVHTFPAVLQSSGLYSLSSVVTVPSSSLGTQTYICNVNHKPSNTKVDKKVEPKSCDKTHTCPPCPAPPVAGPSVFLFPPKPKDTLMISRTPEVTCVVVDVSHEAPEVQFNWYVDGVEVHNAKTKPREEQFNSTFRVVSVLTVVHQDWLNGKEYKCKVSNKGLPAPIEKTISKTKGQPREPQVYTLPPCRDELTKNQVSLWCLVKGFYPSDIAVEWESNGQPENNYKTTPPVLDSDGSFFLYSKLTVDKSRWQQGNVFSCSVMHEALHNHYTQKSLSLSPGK
light: B1 light
notes: structure 1; CD38 (MOR) x CD3; CH2 G2DCH2

These binders were tested against T1, Human CD3ε (human, UniProt P07766 23-126) (assay: flow cytometry, human T cells).
T1 construct: CD3 on T cells isolated from human whole blood
Method in brief: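 Cells expressing the target antigen (CD38+ MM.1S or RPMI 8226 for CD38; isolated T cells for CD3) were plated at 2×10⁵ per well in 1% FBS-PBS on ice. Antibody was titrated 3-fold over 11 points from 3000 nM and incubated 2 h at 4° C with shaking, followed by PE anti-human IgG Fc.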

Binder	EC50 [nM]
B1	478
B2	437
B3	405

These binders were tested against T2, Monkey CD3 (monkey) (assay: flow cytometry, monkey T cells).
T2 construct: whole, on cells; also called CD3 of monkey CD3 positive T cells

Binder	EC50 [nM]
B1	491
B2	461
B3	420

These binders were tested against Human CD38 (human, UniProt P28907 43-300) (assay: flow cytometry, MM.1S or RPMI 8226 cells).
From the text: 1) Cell preparation: T cells isolated from CD3-positive human whole blood were used for a CD3 end affinity detection of multifunctional antibody molecule; positive tumor cells of corresponding antigen were used for detecting affinity of tumor antigen; for example, CD38-positive MM. 1S cells (purchased from the Cell Resource Center of Shanghai Institutes for Biological Sciences, Chinese Academy of Sciences) or RPMI 8226 cells (purchased from the Cell Resource Center of Shanghai Institutes for Biological Sciences, Chinese Academy of Sciences) were used for CD38 antigen detection, and PD-L1 positive H358 cells (purchased from the Cell Resource Center of Shanghai Institutes for Biological Sciences, Chinese Academy of Sciences) were used for PD-L1 antigen detection, and so on. The cells were resuspended with 1% FBS-PBS, adjusted to a density of 4×10⁶/ml, and 50 μl of cells were taken from each well, and then plated at 2×10⁵ per well. Cell plating was operated on ice
2) Addition of the antibody: according to the experimental design, the antibody was diluted gradually, and dilution of antibody was operated on ice. For example, the initial concentration of antibody for dilution was 3000 nM, and the antibody was diluted by 3 times with 11 concentration gradients. The diluted antibody was added to a cell well at 50 μl per well, mixed well, and shaked and incubated at 4° C. 1100 rpm/min for 2 h; after washing, the cells were resuspend in 1% FBS-PBS, and a diluted secondary antibody PE anti-human IgG FC (Biolegend, 409304) was added with a final concentration of 8 ug/ml and a volume of 50 μl/well. At the same time, a well only added with cells and secondary antibody was set as a control, the components were mixed well, and incubated under shaking at 1100 rpm/min at 4° C. for 1 h;
5) Data analysis: the data was analyzed by a flow analysis software FlowJo 7.6 thereby obtaining an average fluorescence intensity of the specific antibody concentration, plotted by a Graphpad Prism 5 with the antibody concentration (nM) as an abscissa and the average fluorescence intensity as an ordinate; the EC50 value was calculated by the method of One site—Specific binding, and the EC50 value indicated the cell affinity of the antibody to the corresponding target antigen.

Binder	EC50 [nM]
B1	104
B2	106
B3	100
